Residue numbers refer to the chain shown, from its start.
B1: 53-F7 (VHH)
VHH: EVQLVESGGALVQPGGSLRLSCAASGSIVSIDFMGWYRQAPGKQREVVTFITSGGSPNYVDSVEGRFTISRDNAKNTMYLQMNSLKPEDTAVYYCYMQSGTAGSWGQGTQVTVSS
B2: 53-A3 (VHH)
VHH: B1 VHH with A10G, S30R, I31V, E64T, M97I
notes: Purified Nanobody
B3: 55-B8 (VHH)
VHH: EVQLVESGGGLVQPGGSLRLSCTASTSIFSLYDMGWYRQAPGKERELVARITSGRSINYADSVKGRFTISRDNAKNTVYLQMNSLKPEDTAAYYCNANHHDWGTNWDFWGQGTQVTVSS
notes: Purified Nanobody
B4: 73-E6 (VHH)
VHH: EVQLVESGGGLVQAGGSLRLSCAASGSTFTETPFTMHALSWYRQSEGKERELVAAISLAGTTNYADSVKGRFTISRDNGKKAVYLQMNSLKAEDTAVYYCNVGSWFQGYYAMDYWGEGTLVTVSS
notes: Purified Nanobody
B5: 73-A9 (VHH)
VHH: EVQLVESGGGLVQPGESLSLSCTASGSAFGINSMGWYRQAPGKERELVAVMYSDSNTTYTDSVKGRFTISRDYAKNTVYLRMNSLKPEDTAVYFCHCEAIREPGDYYGWHYWGKGTLVTVSS
notes: Purified Nanobody
B6: 73-A7 (VHH)
VHH: EVQLVESGGGLVQPGGSLRLSCAASGFTFGSYDMSWVRQAPGKGPEWVSAINSGGGTTYYADSVKGRFTISRDNAKNTLYLQMNSLKPEDTAVYYCATGRPLWDYSDYADFGSWGQGTQVTVSS
notes: Purified Nanobody
B7: 53-B7 (VHH)
VHH: EVQLVESGGGLVQAGGSLRLDCAASGRTSYAMGWFRQGTGKEREFVAALSPSGYYTYYEDSVKGRFSIHRDNAKNMVYLQMNSLTPEDTAVYYCAAGRHETASGILPNYWGQGIQVTVSS
B8: 53-C4 (VHH)
VHH: B7 VHH with L49I, E100Q, A102V, N108D
B9: 53-C7 (VHH)
VHH: B7 VHH with K41Q, L49I, S67N, A73T, E100K, A102V, N108D
B10: 53-F9 (VHH)
VHH: B7 VHH with L49I, S67F, I68M, E100N, A102V, N108D, Q112R
B11: 53-G7 (VHH)
VHH: B7 VHH with L49I, S67F, E100K, A102V, N108D
B12: 53-G8 (VHH)
VHH: B7 VHH with E1K, A47S, L49I, E100Q, A102V, N108D
B13: 53-D6 (VHH)
VHH: EVQLVESGGGLVEAGGSLRLSCTASGGTFSTYAMGWFRQAPGKEREFAAAISRNGGSKGYKESVKGRFTISRDNAKNTVYLQMNSLKPEDTAVYYCAASRTYTYSTAMKDYNYWGQGTQVTVSS
B14: 53-F3 (VHH)
VHH: EVQLVESGGGLVQPGGSLRLSCAAPGSIVSINNMGWYRQAPGKQRELVALITSGGTTTYADSVKGRFTISGDNAKKMVYLQMNSLKPEDTAVYYCNAVFTTDTRNWYDYWGQGTQVTVSS
B15: 53-A6 (VHH)
VHH: EVQLVESGGGLVQPGGSRRLSCATSASITSISFMGWYRQAPGKQRELVAFIPSSGVPNYVGFAEGRFTISRDDAKNTVYLQMNGLKPEDTAVYYCYLQPLGGSGSWGQGTQVTVSS

Assays:
[1] = target: T1, Recombinant human PDGFRβ/Fc chimera (R&D Systems Cat #385 PR) (human, UniProt P09619 33-532); test: ELISA binding screen on captured PDGFRβ-Fc and ELISA ligand competition
T1 construct: extracellular domain; Bought reagent; also called PDGFRP-Fc; not shown: Fc part of the bought chimera (captured and detected with anti-human IgG)
Protocol: (§1) In order to determine binding specificity to PDGFRβ-Fc, the clones were tested in an ELISA binding assay setup, using the monoclonal phage pools. Shortly, 1 ug/ml of Fc-capturing Ab (Rabbit anti-human IgG, DAKO # A423) was coated on Maxisorp ELISA plates (Nunc) and free binding sites were blocked using 4% Marvel skimmed milk in PBS. Next, 0.1 ug/ml receptor in 2% Marvel/PBS was captured. After a wash step with PBS, 10 ul of supernatant from the monoclonal phage inductions of the different clones in 100 ul 2% Marvel PBS were allowed to bind to the captured PDGFRP-Fc. […] Binding specificity was determined based on OD values compared to controls having received no phage.
Clones tested in the PDGFRβ binding assay were also screened for their ability to block PDGF-BB binding to PDGFRβ-Fc. For this, Nanobody containing periplasmic extracts, or selected purified Nanobodies, were used in an ELISA-based ligand competition setup. In short, 1.0 ug/ml (80 nM) recombinant human PDGF-BB (R&D Systems #220-BB) was coated in 96 well Maxisorp microtiter plates (Nunc) and blocked with 4% Marvel skimmed milk in PBS. In parallel, 1 ug/ml (12 nM) PDGFRβ-Fc chimera was incubated with periplasmic extracts or purified Nanobody. After 1 hour, the receptor-Nanobody pre-mixes were incubated 1 hour with the coated ligand. Bound PDGFRβ-Fc was detected using HRP-conjugated goat anti-human IgG (Jackson Immunoresearch, Cat #109-035-098). Blocking activity was determined as loss of OD signal, as compared to wells where no Nanobodies, or irrelevant Nb, had been added.

[2] = target: T1, Recombinant human PDGFRβ/Fc chimera …; test: phage ELISA on PDGFRβ-Fc (0.1 ug/ml) captured by coated anti-human IgG, detection with HRP anti-M13
Protocol: as §1

[3] = target: T2, Recombinant human FGFR4/Fc chimera (R&D Systems Cat #685 FR) (human, UniProt P22455 22-369); test: ELISA: periplasmic extract on coated FGFR4-Fc (500 ng/ml)
T2 construct: extracellular domain; Bought reagent; also called Fc-FGFR4; not shown: Fc part of the bought chimera (detected with anti-human IgG)
T2 sequence (looked up): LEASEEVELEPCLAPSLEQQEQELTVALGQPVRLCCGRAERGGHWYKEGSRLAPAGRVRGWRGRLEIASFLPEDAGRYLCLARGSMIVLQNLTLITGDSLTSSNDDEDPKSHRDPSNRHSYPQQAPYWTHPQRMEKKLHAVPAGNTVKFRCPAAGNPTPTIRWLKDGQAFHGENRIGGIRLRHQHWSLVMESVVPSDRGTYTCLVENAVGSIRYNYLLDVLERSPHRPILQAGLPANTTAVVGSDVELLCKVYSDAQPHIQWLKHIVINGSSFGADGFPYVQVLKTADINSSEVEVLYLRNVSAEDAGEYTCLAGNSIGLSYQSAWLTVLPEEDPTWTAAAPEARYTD
Protocol: In order to determine binding specificity to FGFR4, the clones were tested in an ELISA binding assay setup, using the monoclonal […]. Shortly, 500 ng/ml of Fc-FGFR4 (R&D Systems Cat #685 FR) was coated on Maxisorp ELISA plates (Nunc) and free binding sites were blocked using 4% Marvel skimmed milk in PBS. After a wash step with PBS, 10 ul of periplasmic extract from the monoclonal inductions of the different clones in 100 ul 2% Marvel PBS were allowed to bind to the FGFR4-Fc. […] 53-G3 was used as a reference since it was selected against PDGFRβ-Fc.

T1 sequence (P09619 33-532, change not shown): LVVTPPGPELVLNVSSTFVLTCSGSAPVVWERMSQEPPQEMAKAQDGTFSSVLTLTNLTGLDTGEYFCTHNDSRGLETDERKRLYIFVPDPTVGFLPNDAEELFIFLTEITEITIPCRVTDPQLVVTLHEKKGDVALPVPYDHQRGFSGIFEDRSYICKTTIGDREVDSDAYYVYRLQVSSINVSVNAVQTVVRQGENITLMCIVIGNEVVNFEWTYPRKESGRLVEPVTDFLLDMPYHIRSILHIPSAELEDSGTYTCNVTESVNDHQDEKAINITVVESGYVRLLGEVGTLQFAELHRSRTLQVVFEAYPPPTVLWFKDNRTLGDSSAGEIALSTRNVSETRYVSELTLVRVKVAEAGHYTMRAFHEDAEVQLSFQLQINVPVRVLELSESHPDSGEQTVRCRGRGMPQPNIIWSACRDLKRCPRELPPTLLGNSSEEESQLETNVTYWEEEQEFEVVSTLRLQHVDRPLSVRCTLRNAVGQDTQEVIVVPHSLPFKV

Binder | binding result [1] | also measured
B1 | binds | –
B2 | – | binding result [2]: binds
B3 | – | binding result [3]: binds
B4 | – | binding result [3]: binds
B5 | – | binding result [3]: binds
B6 | – | binding result [3]: binds
B7 | binds | –
B8 | binds | –
B9 | binds | –
B10 | binds | –
B11 | binds | –
B12 | binds | –
B13 | binds | –
B14 | binds | –
B15 | binds | –
